Here are results for four molecules from patent publication US9187762B2, “Compositions and methods comprising sequences having hydroxyphenylpyruvate dioxygenase (HPPD) activity” (PIONEER HI-BRED INTERNATIONAL, INC., priority 2010, dated 2015).

Data set [1] concerns soybean HPPD. The data set is described as follows: HPPD activity, coupled assay with HGD; substrate saturation kinetics (KM, kcat). The format is biochemical. The following applies: soy HPPD, wt and improved. From the text:
HPPD catalyzes the conversion of 4-hydroxyphenylpyruvate (HPP) to homogentisate. See, FIG. 1. […] However, the product of the ensuing reaction in tyrosine metabolism, maleylacetoacetate, absorbs strongly at 320 nm. Furthermore, the enzyme catalyzing that reaction is also a dioxygenase having similar mechanism and buffer requirements as HPPD, making homogentisate dioxygenase (HGD) an ideal partner in a coupled assay, as shown.
The HDG gene from Pseudomonas aeruginosa (Amaya (2004) Arch Biochem Biophys 421, 135-142) was cloned into pVER7062 and electroporated into E. coli strain BL21(DE3). The enzyme was produced by methods similar to those described for HPPD. The purified enzyme has a KM for homogentisate of 23 uM and a kcat of 100/sec, properties highly suited for instantly converting the homogentisate produced by HPPD to maleylacetoacetate.
(§1) HPPD activity was measured by placing an aliquot (e.g., 6 ul) of the substrate HPP at 50-fold the desired final concentration into the wells of a low UV-absorbing assay plate. Reactions were started by adding a mixture (e.g., 294 ul) containing 25 mM Hepes, pH 7, 2 mM ascorbate, 10 uM FeSO4, 1 to 100 uM HPP, 50 nM HGD and 5 to 240 nM HPPD. Absorbance at 320 nm was monitored continuously in a plate-reading spectrophotometer (Spectramax, Molecular Devices).
(§2) The catalytic performance of wild-type HPPD and variants generated by shuffling was assessed by determining the substrate saturation parameters. The Michaelis-Menten kinetics protocol of the Spectramax software was customized for HPP concentrations ranging from 3.33 uM to 100 uM, or up to 1 mM if required. Reaction rates were measured as described above for each concentration of HPP. The software returns values of KM and Vmax using the Lineweaver-Burke transformation of the Michaelis-Menten equation.
(§3) The amino acid substitutions identified during the shuffling and mutagenesis of the maize HPPD gene can be made at analogous positions in other HPPD proteins to improve their insensitivity toward HPPD-inhibiting herbicides. The sequences of native and improved maize HPPD were aligned with those of sorghum (Genbank accession number XP002453359) and soybean (Genbank accession number ABQ96868), and the motif substitutions were designed accordingly, as shown in FIG. 14. The genes designed for improvement were synthesized commercially, inserted into vector pVER7062 and expressed, purified and evaluated as in Example 1.

For data set [2], the system named is G. max HPPD. The data set is described as follows: ON/OFF rate ratio insensitivity parameters of HPPD with maize motif substitutions. The class given is biochemical, Glycine max. The settings on record: for OFF ratio / ON ratio / ON × OFF Value / ON × OFF Fold vs wt: soy HPPD. Here is the method:
(§4) [formula] Higher KD (reduced affinity or increased insensitivity) can be attained with a numerically smaller ON rate, a larger OFF rate or both. […] The ratio of the reaction rate with inhibitor to that without inhibitor during the 70 to 90 second interval of the reaction was termed the “ON rate ratio”. […] Incubations with the same concentrations of enzyme but no mesotrione were done in parallel. After 1 hr at room temperature, 5 to 10 ul of the enzyme-inhibitor complex was dispensed into the wells of the assay plate. Reactions were started with the addition of 290 to 295 ul of 25 mM Hepes, pH 7, 2 mM ascorbate, 10 uM FeSO4, 100 uM HPP and 50 nM HGD. The reactions were monitored at 320 nm for 12 min. Reaction velocity accelerates as inhibitor is released from the enzyme until a steady state is reached, during which the reaction velocity is constant. The ratio of the steady state rate in mixtures containing mesotrione (or other herbicidal inhibitor) to the initial velocity of mixtures lacking inhibitor is termed the “OFF rate ratio”. Another parameter to record is the time span required for the reactions with inhibitor to reach the steady state. […] It is not certain that the steady state attained in the OFF rate reactions actually represents an equilibrium where OFF rates are now equal to ON rates. Because substrate and inhibitors bind in the same site, the high concentration of substrate present may competitively trap the inhibitor and prevent it from binding again. To be sure that improvement in ON rates is being taken into account, the ON and OFF rate ratios were multiplied together and the product is termed the “insensitivity parameter”.

The test system of data set [3] is S. bicolor HPPD. The data set is described as above. The class given is biochemical, Sorghum bicolor. The settings on record: sorghum HPPD. Here is the method:
as §4

Data set [4] relates to S. bicolor HPPD. The data set is described as follows: HPPD activity, coupled assay with HGD; substrate saturation kinetics. The format is biochemical, Sorghum bicolor. The following applies: sorghum HPPD, wt and improved. Here is the method:
as §1, §2, §3

The Km is the concentration of substrate that gives half-maximal velocity.

B1: SEQ ID NO: 2 (protein)
chain: MAIPMCNEIQAQAQAQAQAQPGFKLVGFKNFVRTNPKSDRFQVNRFHHIEFWCTDATNASRRFSWGLGMPIVAKSDLSTGNQIHASYLLRSGDLSFLFSAPYSPSLSAGSSAASSASIPSFDAATCLAFAAKHGFGVRAIALEVADAEAAFSASVAKGAEPASPPVLVDDRTGFAEVRLYGDVVLRYVSYKDAAPQAPHADPSRWFLPGFEAAASSSSFPELDYGIRRLDHAVGNVPELAPAVRYLKGFSGFHEFAEFTAEDVGTSESGLNSVVLANNSETVLLPLNEPVYGTKRKSQIETYLEHNEGAGVQHLALVTHDIFTTLREMRKRSFLGGFEFMPSPPPTYYANLHNRAADVLTVDQIKQCEELGILVDRDDQGTLLQIFTKPVGDRPTIFIEIIQRIGCMVEDEEGKVYQKGACGGFGKGNFSELFKSIEEYEKTLEAKRTA
modifications: Glycine max
As to B1, in data set [1], the Km amounted to 2 µM and the kcat came to 83. Further, in data set [2] (Mesotrione), the OFF ratio worked out at 0.135, the ON ratio is reported as 0.299 and the “ON × OFF Value” is listed as 0.040. Further, in data set [2] (Tembotrione), the OFF ratio is on record as 0.044, the ON ratio is on record as 0.102 and the “ON × OFF Value” is on record as 0.0044.

B2: SEQ ID NO: 394 (protein)
chain: MPPTPTTAAATGAAVAAASAEQAAFRLVGHRNFVRVNPRSDRFHTLAFHHVELWCADAASAAGRFSFGLGAPLAARSDLSTGNTAHASLLLRSGALAFLFTAPYAHGADAATASLPSFSAAEARRFAADHGLAVRAVALRVADAEDAFRASVAAGARPAFEPVELGLGFRLAEVELYGDVVLRYVSYPDDADASFLPGFVGVTSPGAADYGLRRFDHIVGNVPELAPAAAYFAGFTGFHEFAEFTAEDVGTTESGLNSMVLANNAENVLLPLNEPVHGTKRRSQIQTYLDHHGGPGVQHMALASDDVLRTLREMQARSAMGGFEFMAPPAPEYYDGVRRRAGDVLTEAQIKECQELGVLVDRDDQGVLLQIFTKPVGDRPTLFLEIIQRIGCMEKDEKGQEYQKGGCGGFGKGNFSQLFKSIEDYEKSLEAKQAAAAQGS
modifications: Sorghum bicolor
Turning to B2, in data set [3] (Mesotrione), the OFF ratio is recorded as 0.199, the ON ratio is recorded as 0.227 and the “ON × OFF Value” came out at 0.045. Moreover, in data set [3] (Tembotrione), the OFF ratio worked out at 0.032, the ON ratio is recorded as 0.210 and the “ON × OFF Value” is given as 0.0067. Further, in data set [4], the Km turned out to be 4.9 µM and the kcat was 246.

B3: GE010083 (protein)
chain: MPPTPTTAAATGAAVAAASAEQAAFRLVGHRNFVRVNPRSDRFHTLAFHHVELWCADAASAAGRFSFGLGAPLAARSDLSTGNTAHASLLLRSGALAFLFTAPYAHGADAATASLPSFSAAEARRFAADHGLAVRAVALRVADAEDAFRASVAAGARPAFEPVELGLGFRLAEVELYGDVVLRYVSYPDDADASFLPGFVGVTSPGAADYGLRRFDHIVGNVPELAPAAAYMAGFTGFHEFAEFTAEDVGTTESGLNSMALANNAENVLLPLNEPVHGTKRRSQIQTYLDHHGGPGVQHIALASDDVLRTLREMQARSAMGGFEFLPPPLSEYYDGVRRCAGDVLTEAQIKECQELGVMVDRDDQGVLLQIFTKPVGDRPTLFLEIIQRIGCMEKDEKGQEYQKGGCGGFGKGNFGQLFKSIEDYEKSLEAKQAAAAQGS
modifications: HPPD variant
In the case of B3, in data set [3] (Mesotrione), the OFF ratio amounted to 0.436, the ON ratio stood at 0.634, the “ON × OFF Fold vs wt” value is 6.13 and the “ON × OFF Value” came to 0.277. For the same molecule, in data set [3] (Tembotrione), the OFF ratio was found to be 0.071, the ON ratio was 0.730, the “ON × OFF Fold vs wt” value came to 7.71 and the “ON × OFF Value” came to 0.0517. In data set [4], the Km is 5.35 µM and the kcat is given as 87.

B4: GE010082: Glycine max variant HPPD with maize motif substitutions, SEQ ID NO: 458 (protein)
chain: MPIPMCNEIQAQAQAQAQAQPGFKLVGFKNFVRTNPKSDRFQVNRFHHIEFWCTDATNASRRFSWGLGMPIVAKSDLSTGNQIHASYLLRSGDLSFLFSAPYSPSLSAGSSAASSASIPSFDAATCLAFAAKHGFGVRAIALEVADAEAAFSASVAKGAEPASPPVLVDDRTGFAEVRLYGDVVLRYVSYKDAAPQAPHADPSRWFLPGFEAAASSSSFPELDYGIRRLDHAVGNVPELAPAVAYMAGFSGFHEFAEFTAEDVGTSESGLNSMALANNSETVLLPLNEPVYGTKRKSQIETYLEHNEGAGVQHLALVTHDIFTTLREMRKRSFLGGFEFMPSPPPTYYANLHNCAADVLTVDQIKQCEELGIMVDRDDQGTLLQIFTKPVGDRPTIFIEIIQRIGCMVEDEEGKVYQKGACGGFGKGNFGELFKSIEEYEKTLEAKRTAGLTVNS
modifications: HPPD variant
B4: in data set [1], the Km turned out to be 14 µM and the kcat stood at 13. In addition, in data set [2] (Mesotrione), the OFF ratio is 0.219, the ON ratio is 0.444, the “ON × OFF Fold vs wt” value was 2.41 and the “ON × OFF Value” was 0.097. Further, in data set [2] (Tembotrione), the OFF ratio is 0.070, the ON ratio is recorded as 0.321, the “ON × OFF Fold vs wt” value is 5.10 and the “ON × OFF Value” is reported as 0.0224. For the same molecule, the “improvement of insensitivity vs native protein” value in data set [2] (mesotrione) is reported as 2.41 fold. Moreover, the “improvement of insensitivity vs native protein” value in data set [2] (tembotrione) was 5.10 fold.
